What all share (assay): co-immunoprecipitation: anti-HA IP, anti-FLAG blot, Phoenix-A cell lysates
The target of assay [1] is T1, FLAG-TRAF2, full length human Traf2 with N-terminal FLAG epitope tag (human, UniProt Q12933 2-501).
T1 construct: mature; also called FLAG-tagged TRAF2; TRAF2(WT)
T1 sequence: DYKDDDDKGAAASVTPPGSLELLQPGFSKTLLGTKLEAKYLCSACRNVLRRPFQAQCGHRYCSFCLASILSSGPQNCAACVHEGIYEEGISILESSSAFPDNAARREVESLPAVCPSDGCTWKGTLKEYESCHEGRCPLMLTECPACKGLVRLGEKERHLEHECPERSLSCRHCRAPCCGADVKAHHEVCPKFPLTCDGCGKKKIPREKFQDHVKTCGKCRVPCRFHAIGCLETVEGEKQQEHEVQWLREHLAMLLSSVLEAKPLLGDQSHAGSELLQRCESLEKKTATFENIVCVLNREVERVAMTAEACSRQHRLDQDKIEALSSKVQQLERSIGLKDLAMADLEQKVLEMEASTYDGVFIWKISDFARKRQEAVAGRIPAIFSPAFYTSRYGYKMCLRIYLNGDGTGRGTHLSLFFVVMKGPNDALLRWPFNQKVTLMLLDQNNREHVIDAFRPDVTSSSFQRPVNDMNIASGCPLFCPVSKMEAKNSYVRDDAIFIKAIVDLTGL
An excerpt: (§1) Washed precipitates were subjected to SDS-PAGE analysis and Western blotting. Supersignal and Supersignal West Duro substrates (Piers) were used as detection systems for the Western blotting.
(§2) Interaction of Tnik with TRAF2 and NCK—To confirm the interaction of Tnik with TRAF2, N-terminal HA-tagged Tnik was transiently expressed in Phoenix-A cells and HA-Tnik was immunoprecipitated by an anti-HA antibody. The immune complexes were resolved on SDS-PAGE and immunoblotted with an anti-TRAF2 antibody. Endogenous TRAF2 specifically co-immunoprecipitated with HA-Tnik (FIG. 6, top panel). To map the interaction domain on Tnik that mediated its interaction with TRAF2, we constructed several truncated forms of HA-tagged Tnik (FIG. 7) and co-expressed them with FLAG-tagged TRAF2. Anti-HA immunoprecipitates were then blotted with an anti-FLAG antibody to detect the co-immunoprecipitated FLAG-TRAF2. […] Expression levels of the transfected proteins were controlled by immunoblotting cell lysates with anti-HA and anti-FLAG antibodies (FIG. 8, middle and bottom panels).
(§3) We then mapped the domains on TRAF2 that mediated the interaction with Tnik. FLAG-tagged TRAF2 mutants (FIG. 9) were co-expressed with HA-Tnik and the lysates were subjected to anti-HA immunoprecipitation. The immune complexes were then blotted with an anti-FLAG antibody.

Assay [2] has as its target T2, FLAG-NCK, full length human NCK with N-terminal FLAG epitope tag (human, UniProt P16333 2-377).
T2 construct: mature; also called FLAG-tagged NCK
Source text: as §1, §2, §3

The target in assay [3] is T3, HA-Tnik(WT), full length human Tnik isoform 1 with N-terminal HA epitope tag (human, UniProt Q9UKE5 1-1360).
T3 construct: Expressed transiently in Phoenix-A cells and immunoprecipitated from lysate; also called Tnik1
Source text: as §1, §2, §3

These results are taken from US6562591 (RIGEL PHARMACEUTICALS, dated 2003).

B1: HA-Tnik(N1), Tnik mutant with only the kinase domain (enzyme)
chain: AYPYDVPDYAMASDSPARSLDEIDLSALRDPAGIFELVELVGNGTYGQVYKGRHVKTGQLAAIKVMDVTGDEEEEIKQEINMLKKYSHHRNIATYYGAFIKKNPPGMDDQLWLVMEFCGAGSVTDLIKNTKGNTLKEEWIAYICREILRGLSHLHQHKVIHRDIKGQNVLLTENAEVKLVDFGVSAQLDRTVGRRNTFIGTPYWMAPEVIACDENPDATYDFKSDLWSLGITAIEMAEGAPPLCDMHPMRALFLIPRNPAPRLKSKKWSKKFQSFIESCLVKNHSQRPATEQLMKHPFIRDQPNERQVRIQLKDH
On to B1, for which the binding result in assay [1] and in assay [2] was “no binding” each time.

B2: HA-Tnik(C2), GCKH domain of Tnik (other)
chain: AYPYDVPDYARKISVVNVNPTNIRPHSDTPEIRKYKKRFNSEILCAALWGVNLLVGTENGLMLLDRSGQGKVYNLINRRRFQQMDVLEGLNVLVTISGKKNKLRVYYLSWLRNRILHNDPEVEKKQGWITVGDLEGCIHYKVVKYERIKFLVIALKNAVEIYAWAPKPYHKFMAFKSFADLQHKPLLVDLTVEEGQRLKVIFGSHTGFHVIDVDSGNSYDIYIPSHIQGNITPHAIVILPKTDGMEMLVCYEDEGVYVNTYGRITKDVVLQWGEMPTSVAYIHSNQIMGWGEKAIEIRSVETGHLDGVFMHKRAQRLKFLCERNDKVFFASVRSGGSSQVFFMTLNRNSMMNW
For B2, the binding result in assay [2] is recorded as “no binding”.

B3: FLAG-TRAF2(1-272) (other, human)
chain: DYKDDDDKGMAAASVTPPGSLELLQPGFSKTLLGTKLEAKYLCSACRNVLRRPFQAQCGHRYCSFCLASILSSGPQNCAACVHEGIYEEGISILESSSAFPDNAARREVESLPAVCPSDGCTWKGTLKEYESCHEGRCPLMLTECPACKGLVRLGEKERHLEHECPERSLSCRHCRAPCCGADVKAHHEVCPKFPLTCDGCGKKKIPREKFQDHVKTCGKCRVPCRFHAIGCLETVEGEKQQEHEVQWLREHLAMLLSSVLEAKPLLGDQSHAGSELLQRC
Take B3: the binding result in assay [3] is listed as “no binding”.
